Key:
[1] = target: HIV-1 CA hexamer tubes, disulfide-stabilized CA hexamers (A14C/E45C) assembled into large molecular weight tubes; assay: co-sedimentation with CA hexamer tubes; conditions: read off a plot
[2] = target: HIV-1 CA hexamer tubes, disulfide-stabilized CA hexamers (A14C/E45C) assembled into large molecular weight tubes (HIV-1)
[3] = target: HIV-1 CA hexamer tubes, disulfide-stabilized CA hexamers (A14C/E45C) assembled into large molecular weight tubes; assay: co-sedimentation with CA hexamer tubes; conditions: parent: est. 81; read off a plot

## TRIM-NUP153C-HA with CbM.1 replaced by CbM.2 (∆1::2) (from UniProt Q0PF16;P49790) F1417A
[1]; parent: est. 55
  response (% Bound NUP153c): 36

## TRIM-NUP153C-HA with the mutation F1417A in CbM.1 (from UniProt Q0PF16 1-304; P49790 896-1475)
[2]
  TRIM-NUP153c restriction assay: increase in HIV-GFP-positive cells: 7 fold

## TRIM-NUP153C-HA, TRIM domain of rhesus TRIM5α (1-304) fused to the HA-tagged human NUP153 C-terminal domain (896-1475), wild type (from UniProt Q0PF16 1-304; P49790 896-1475)
[2]
  TRIM-NUP153c restriction assay: HIV-GFP-transduced GFP-positive cells relative to empty vector control (% relative to empty vector control): 18.5

## TRIM-NUP153C-HA, TRIM domain of rhesus TRIM5α (1-304) fused to the HA-tagged human NUP153 C-terminal domain (896-1475), wild type (from UniProt Q0PF16;P49790) ∆1::2 (CbM.1 replaced by CbM.2)
[1]; parent: est. 81
  response (% Bound NUP153c): 55
[3]
  response (% Bound NUP153c): 55

## TRIM-NUP153C-HA, TRIM domain of rhesus TRIM5α (1-304) fused to the HA-tagged human NUP153 C-terminal domain (896-1475), wild type (from UniProt Q0PF16;P49790) ∆1::3 (CbM.1 replaced by CbM.3)
[3]
  response (% Bound NUP153c): 47

## TRIM-NUP153C-HA, TRIM domain of rhesus TRIM5α (1-304) fused to the HA-tagged human NUP153 C-terminal domain (896-1475), wild type (from UniProt Q0PF16;P49790) ∆1::4 (CbM.1 replaced by CbM.4)
[3]
  response (% Bound NUP153c): 51

## TRIM-NUP153C-HA, TRIM domain of rhesus TRIM5α (1-304) fused to the HA-tagged human NUP153 C-terminal domain (896-1475), wild type (from UniProt Q0PF16;P49790) ∆2::1 + ∆1::2 (CbM.1 and CbM.2 swapped)
[1]; parent: est. 81
  response (% Bound NUP153c): 97

Source: paper PMC12078792
